Experimental findings from patent US20220017612A1 (TILOS THERAPEUTICS, published 2022) are described below.

The target in experiment [1] is T1, fusion protein of a human IgG1 Fc domain and human LAP-TGFβ1 (human, UniProt P01137 30-390).
T1 construct: printed both as Fc-huB1 and LAP-TGFβ-Fc; also called Fc-huB1; Fc-human LAP
The experiment is described as follows: BLI (Octet). For orientation: BLI is a label-free optical method that tracks binding on a fibre tip over time.

Experiment [2] has as its target T2, human LAP-TGFβ1 overexpressed on cells (human, UniProt P01137 30-390).
T2 construct: HT1080 or P3U1 cells overexpressing wild-type human LAP-TGFβ1; also called HT1080-huB1; HT1080-hβ1
The experiment is described as follows: flow cytometry; black bar HT1080-huB1, grey bar HT1080. The method, then: First, the ability of 22F9H0L0, HILO, H2L0, H3L0, H4L0, H5L0, H0L1, H1L1, H2L1, H3L1, H4L1, H5L1, H0L2, H1L2, H2L2, H3L3, H4L2, and H5L2 to bind to HT1080 cells overexpressing human TGFβ1 was tested by flow cytometry. HT1080 cells over-expressing human LAP-TGFβ1 were placed in a round-bottom 96-well plate at density of 40,000 cells/well. The cells were washed with FACS buffer (25 mM HEPES, 2 mM EDTA, 2% fetal bovine serum in Hank's Balanced Salt Solution). 50 μL of 1:200 diluted TruStain Human FcX (BioLegend) was added to each well, followed by 50 μL of 100 ng/μL of humanized 22F9 construct. The antibody was allowed to bind for 20 minutes. The cells were washed twice with FACS buffer. The cells were labeled for 15 minutes with Alexa647-anti Human IgG (Jackson Immunoresearch), washed twice with FACS buffer, and analyzed by flow cytometry.

In experiment [3] the target is T1, fusion protein of a human IgG1 Fc …. Briefly: BLI, antibody on tip, 1:1 model. How it is done:
(§1) Binding to human TGFβ1 of a subset of candidates was also tested by bio-layer interferometry (Octet). A streptavidin coated tip was equilibrated for 60 seconds in binding buffer (10 mM sodium phosphate, 150 mM sodium chloride, 1% bovine serum albumin, 0.05% sodium azide). The tip was then dipped in 10 μg/mL biotinylated antibody in binding buffer. After 15 seconds, the tip was washed in binding buffer for 60 seconds, and then dipped in 0-24 nM Fc-human LAP. Analyte association was measured for 5 minutes. The tip was transferred to binding buffer alone, and analyte dissociation was measured for 5 minutes. The association and dissociation data were fit to a 1:1 binding model.

For experiment [4] the target is unchanged. The experiment is described as follows: BLI, signal change on binding. The method, then: as §1

T2 sequence (P01137 30-390): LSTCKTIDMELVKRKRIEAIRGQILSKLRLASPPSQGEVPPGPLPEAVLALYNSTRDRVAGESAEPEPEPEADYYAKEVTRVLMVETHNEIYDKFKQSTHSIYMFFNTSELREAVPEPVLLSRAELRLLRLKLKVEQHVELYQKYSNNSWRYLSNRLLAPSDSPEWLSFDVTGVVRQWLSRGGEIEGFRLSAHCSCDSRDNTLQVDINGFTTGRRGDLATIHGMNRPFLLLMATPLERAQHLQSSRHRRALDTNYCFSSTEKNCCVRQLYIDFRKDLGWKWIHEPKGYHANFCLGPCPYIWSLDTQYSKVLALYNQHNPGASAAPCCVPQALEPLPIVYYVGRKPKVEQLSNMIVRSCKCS
T1 sequence (P01137 30-390 limits assumed): as the sequence (P01137 30-390) above

B1: 20E6_H0L1 (antibody, human IgG1, kappa, V domains shown)
VH: QVQLVQSGAEVKKPGASVKVSCKASGYTFTSYWMHWVRQAPGQGLEWMGRIDPNSGGIKYNEKFKSRVTMTRDTSISTAYMELSRLRSDDTAVYYCARWDYGGYFDVWGQGTLVTVSS
VL: DIQMTQSPSSLSASVGDRVTITCRASQDITNYLNWYQQKPGKAVKLLIYYTSRLHSGVPSRFSGSGSGTDYTLTISSLQPEDFATYFCQQGDTLPWTFGQGTKLEIKR
The term Kd denotes a measure of binding affinity in units of concentration. High values mean lower affinity, low ones higher affinity. What is called koff is the rate constant with which the complex falls apart. A higher koff goes with a short-lived complex. One may read the kon as the second-order rate constant of association. A low value points to slower complex formation. As to B1, in experiment [1], the affinity, expressed as Kd, was 0.51 nM; the koff was found to be 0.000814 s⁻¹; the on-rate (kon) is 1.59e+06 M⁻¹ s⁻¹.

B2: 20E6_H4L1 (antibody, human IgG1, kappa)
heavy: not shown
light: DIQMTQSPSSLSASVGDRVTITCRASQDITNYLNWYQQKPGKAVKLLIYYTSRLHSGVPSRFSGSGSGTDYTLTISSLQPEDFATYFCQQGDTLPWTFGQGTKLEIKRTVAAPSVFIFPPSDEQLKSGTASVVCLLNNFYPREAKVQWKVDNALQSGNSQESVTEQDSKDSTYSLSSTLTLSKADYEKHKVYACEVTHQGLSSPVTKSFNRGEC
On to B2, for which, in experiment [1], the Kd was 0.47 nM, the koff worked out at 0.000729 s⁻¹ and the on-rate constant (kon) worked out at 1.56e+06 M⁻¹ s⁻¹.

B3: 20E6_H1L1 (antibody, human IgG1, kappa, V domains shown)
VH: QVQLVQSGAEVKKPGASVKVSCKASGYTFTSYWMHWVRQAPGQGLEWIGRIDPNSGGIKYNEKFKSRVTLTVDTSISTAYMELSRLRSDDTAVYYCARWDYGGYFDVWGQGTLVTVSS
VL: DIQMTQSPSSLSASVGDRVTITCRASQDITNYLNWYQQKPGKAVKLLIYYTSRLHSGVPSRFSGSGSGTDYTLTISSLQPEDFATYFCQQGDTLPWTFGQGTKLEIKR
As for B3, in experiment [1], binding was put at a Kd of 0.48 nM, the dissociation rate constant (koff) stood at 0.000677 s⁻¹ and the on-rate constant (kon) worked out at 1.41e+06 M⁻¹ s⁻¹.

B4: 20E6_H3L1 (antibody, human IgG1, kappa)
heavy: not shown
light: DIQMTQSPSSLSASVGDRVTITCRASQDITNYLNWYQQKPGKAVKLLIYYTSRLHSGVPSRFSGSGSGTDYTLTISSLQPEDFATYFCQQGDTLPWTFGQGTKLEIKRTVAAPSVFIFPPSDEQLKSGTASVVCLLNNFYPREAKVQWKVDNALQSGNSQESVTEQDSKDSTYSLSSTLTLSKADYEKHKVYACEVTHQGLSSPVTKSFNRGEC
In the case of B4, in experiment [1], binding was put at a Kd of 0.47 nM, the koff was found to be 0.000702 s⁻¹ and the kon was determined as 1.48e+06 M⁻¹ s⁻¹.

B5: H0L0 (antibody, human IgG1, kappa, V domains shown)
VH: QVQLVQSGAEVKKPGASVKVSCKASGYTFTSYWMHWVRQAPGQGLEWMGMIHPNSGSTNYNEKFKSRVTMTRDTSTSTVYMELSSLRSEDTAVYYCARYDYDGFFDVWGQGTLVTVSS
VL: DIQLTQSPSSLSASVGDRVTITCRASKSVSTSGYSYMHWYQQKPGKAPKLLIYLASNLESGVPSRFSGSGSGTDFTLTISSLQPEDFATYYCQHSRELPYTFGGGTKVEIKR
notes: also called 22F9_H0L0
In the case of B5, the binding result in experiment [2] is listed as “no binding (tested: single dose, 50 µL of 100 ng/µL)”.

B6: H1L2 (antibody, human IgG1, kappa, V domains shown)
VH: QVQLVQSGAEVKKPGASVKVSCKASGYTFTSYWMHWVRQAPGQGLEWIGMIHPNSGSTNYNEKFKSRVTMTVDTSTSTVYMELSSLRSEDTAVYYCAYYDYDGFFDVWGQGTLVTVSS
VL: DIQLTQSPSSLSVSVGDRATITCRASKSVSTSGYSYMHWYQQKPGKPPKLLIYLASNLESGVPSRFSGSGSGTHFTLTISSVQPEDFATYYCQHSRELPYTFGGGTKLEIKR
notes: also called 22F9_H1L2
Turning to B6, the binding result in experiment [2] is reported as “no binding (tested: single dose, 50 µL of 100 ng/µL)”.

B7: H0L1 (antibody, human IgG1, kappa, V domains shown)
VH: QVQLVQSGAEVKKPGASVKVSCKASGYTFTSYWMHWVRQAPGQGLEWMGMIHPNSGSTNYNEKFKSRVTMTRDTSTSTVYMELSSLRSEDTAVYYCARYDYDGFFDVWGQGTLVTVSS
VL: DIQLTQSPSSLSASVGDRVTITCRASKSVSTSGYSYMHWYQQKPGKPPKLLIYLASNLESGVPSRFSGSGSGTHFTLTISSLQPEDFATYYCQHSRELPYTFGGGTKVEIKR
notes: also called 22F9_H0L1
Consider B7, for which the binding result in experiment [2] is on record as “no binding (tested: single dose, 50 µL of 100 ng/µL)”.

B8: H0L2 (antibody, human IgG1, kappa, V domains shown)
VH: QVQLVQSGAEVKKPGASVKVSCKASGYTFTSYWMHWVRQAPGQGLEWMGMIHPNSGSTNYNEKFKSRVTMTRDTSTSTVYMELSSLRSEDTAVYYCARYDYDGFFDVWGQGTLVTVSS
VL: DIQLTQSPSSLSVSVGDRATITCRASKSVSTSGYSYMHWYQQKPGKPPKLLIYLASNLESGVPSRFSGSGSGTHFTLTISSVQPEDFATYYCQHSRELPYTFGGGTKLEIKR
notes: also called 22F9_H0L2
Regarding B8, the binding result in experiment [2] is listed as “no binding (tested: single dose, 50 µL of 100 ng/µL)”.

B9: 22F9_H5L0 (antibody, human IgG1, kappa)
heavy: not shown
light: DIQLTQSPSSLSASVGDRVTITCRASKSVSTSGYSYMHWYQQKPGKAPKLLIYLASNLESGVPSRFSGSGSGTDFTLTISSLQPEDFATYYCQHSRELPYTFGGGTKVEIKRTVAAPSVFIFPPSDEQLKSGTASVVCLLNNFYPREAKVQWKVDNALQSGNSQESVTEQDSKDSTYSLSSTLTLSKADYEKHKVYACEVTHQGLSSPVTKSFNRGEC
In experiment [3], B9 came in with an equilibrium dissociation constant (Kd) of 3.35 nM, a koff of 0.0017 s⁻¹ and an on-rate constant (kon) of 510000 M⁻¹ s⁻¹. For the same molecule, the “Binding (nm)” value in experiment [4] came to 0.13 nm.

B10: 22F9_H4L0 (antibody, human IgG1, kappa)
heavy: not shown
light: DIQLTQSPSSLSASVGDRVTITCRASKSVSTSGYSYMHWYQQKPGKAPKLLIYLASNLESGVPSRFSGSGSGTDFTLTISSLQPEDFATYYCQHSRELPYTFGGGTKVEIKRTVAAPSVFIFPPSDEQLKSGTASVVCLLNNFYPREAKVQWKVDNALQSGNSQESVTEQDSKDSTYSLSSTLTLSKADYEKHKVYACEVTHQGLSSPVTKSFNRGEC
In experiment [3], B10 displayed a dissociation constant Kd of 1.63 nM, a koff of 0.00132 s⁻¹ and a kon of 810000 M⁻¹ s⁻¹. In experiment [4], the “Binding (nm)” value is 0.057 nm.

B11: 22F9_H3L0 (antibody, human IgG1, kappa, V domains shown)
VH: QVQLVQSGAEVKKPGASVKVSCKASGYTFTSYWMHWVRQAPGQGLEWIGMIHPNSGSTNYNEKFKSRVTLTVDKSSSTAYMELSSLRSEDTAVYYCAYYDYDGFFDVWGQGTLVTVSS
VL: DIQLTQSPSSLSASVGDRVTITCRASKSVSTSGYSYMHWYQQKPGKAPKLLIYLASNLESGVPSRFSGSGSGTDFTLTISSLQPEDFATYYCQHSRELPYTFGGGTKVEIKR
With B11, in experiment [3], the equilibrium dissociation constant (Kd) came to 2.75 nM, the off-rate (koff) came out at 0.00214 s⁻¹ and the association rate constant (kon) was 778000 M⁻¹ s⁻¹. Also, the “Binding (nm)” value in experiment [4] is 0.023 nm.

B12: 22F9_H5L1 (antibody, human IgG1, kappa)
heavy: not shown
light: DIQLTQSPSSLSASVGDRVTITCRASKSVSTSGYSYMHWYQQKPGKPPKLLIYLASNLESGVPSRFSGSGSGTHFTLTISSLQPEDFATYYCQHSRELPYTFGGGTKVEIKRTVAAPSVFIFPPSDEQLKSGTASVVCLLNNFYPREAKVQWKVDNALQSGNSQESVTEQDSKDSTYSLSSTLTLSKADYEKHKVYACEVTHQGLSSPVTKSFNRGEC
Turning to B12, in experiment [3], binding was put at a Kd of 2.34 nM, the off-rate constant (koff) worked out at 0.00122 s⁻¹ and the kon was 519000 M⁻¹ s⁻¹. The “Binding (nm)” value in experiment [4] was determined as 0.08 nm.

B13: 22F9_H3L1 (antibody, human IgG1, kappa, V domains shown)
VH: QVQLVQSGAEVKKPGASVKVSCKASGYTFTSYWMHWVRQAPGQGLEWIGMIHPNSGSTNYNEKFKSRVTLTVDKSSSTAYMELSSLRSEDTAVYYCAYYDYDGFFDVWGQGTLVTVSS
VL: DIQLTQSPSSLSASVGDRVTITCRASKSVSTSGYSYMHWYQQKPGKPPKLLIYLASNLESGVPSRFSGSGSGTHFTLTISSLQPEDFATYYCQHSRELPYTFGGGTKVEIKR
B13: the binding result in experiment [2] is on record as “binds”.

B14: 22F9_H2L1 (antibody, human IgG1, kappa, V domains shown)
VH: QVQLVQSGAEVKKPGASVKVSCKASGYTFTSYWMHWVRQAPGQGLEWIGMIHPNSGSTNYNEKFKSRVTLTVDTSTSTAYMELSSLRSEDTAVYYCAYYDYDGFFDVWGQGTLVTVSS
VL: DIQLTQSPSSLSASVGDRVTITCRASKSVSTSGYSYMHWYQQKPGKPPKLLIYLASNLESGVPSRFSGSGSGTHFTLTISSLQPEDFATYYCQHSRELPYTFGGGTKVEIKR
Regarding B14, in experiment [2], the binding result is recorded as “binds”.

B15: 22F9_H2L0 (antibody, human IgG1, kappa, V domains shown)
VH: QVQLVQSGAEVKKPGASVKVSCKASGYTFTSYWMHWVRQAPGQGLEWIGMIHPNSGSTNYNEKFKSRVTLTVDTSTSTAYMELSSLRSEDTAVYYCAYYDYDGFFDVWGQGTLVTVSS
VL: DIQLTQSPSSLSASVGDRVTITCRASKSVSTSGYSYMHWYQQKPGKAPKLLIYLASNLESGVPSRFSGSGSGTDFTLTISSLQPEDFATYYCQHSRELPYTFGGGTKVEIKR
B15: the binding result in experiment [2] is recorded as “binds”.

B16: 22F9_H4L2 (antibody, human IgG1, kappa)
heavy: not shown
light: DIQLTQSPSSLSVSVGDRATITCRASKSVSTSGYSYMHWYQQKPGKPPKLLIYLASNLESGVPSRFSGSGSGTHFTLTISSVQPEDFATYYCQHSRELPYTFGGGTKLEIKRTVAAPSVFIFPPSDEQLKSGTASVVCLLNNFYPREAKVQWKVDNALQSGNSQESVTEQDSKDSTYSLSSTLTLSKADYEKHKVYACEVTHQGLSSPVTKSFNRGEC
In experiment [3], B16 gave a Kd of 2.3 nM, a koff of 0.00137 s⁻¹ and an association rate constant (kon) of 598000 M⁻¹ s⁻¹. Also, the “Binding (nm)” value in experiment [4] amounted to 0.07 nm.
